{
  "source": "patent US20250074982A1",
  "about": "(CITY OF HOPE, published 2025)",
  "molecular_target": "CS1 on MM.1S multiple myeloma cells (human, UniProt Q9NQ25 23-335)",
  "assay": "cell-based or functional assay",
  "data": [
    {"binder": "CS1-dbBiTE (anti-CS1-huOKT3 dual specific bivalent T-cell engager: intact elotuzumab clicked to intact humanized OKT3 at their reduced hinge regions) (bispecific antibody, human IgG1, kappa, one PEG5-N3 per light chain; reduced cysteines of the heavy chain alkylated with bromoacetamide-PEG5-N3, an average of 3 PEG5-N3/heavy chain; one DBCO/light chain (bromoacetamido-DBCO on reduced cysteine); reduced cysteines alkylated with bromoacetamido-DBCO, an average of 3 DBCO/heavy chain; clicked to PEG5-N3 on huOKT3) heavy: not shown light: DIQMTQSPSSLSASVGDRVTITCKASQDVGIAVAWYQQKPGKVPKLLIYWASTRHTGVPDRFSGSGSGTDFTLTISSLQPEDVATYYCQQYSSYPYTFGQGTKVEIKRTVAAPSVFIFPPSDEQLKSGTASVVCLLNNFYPREAKVQWKVDNALQSGNSQESVTEQDSKDSTYSLSSTLTLSKADYEKHKVYACEVTHQGLSSPVTKSFNRGEC VH: QLVQSGGGVVQPGRSLRLSCKASGYTFTRYTMHWVRQAPGKGLEWIGYINPSRGYTNYNQKVKDRFTISTDKSKSTAFLQMDSLRPEDTAVYYCARYYDDHYCLDYWGQGTPVTV VL: DIQMTQSPSSLSASVGDRVTITCSASSSVSYMNWYQQTPGKAPKRWIYDTSKLASGVPSRFSGSGSGTDYTFTISSLQPEDIATYYCQQWSSNPFTFGQGTKLQITR", "values": [
      {"measurement": "IFN-γ and TNF-α positive cells detected by intracellular cytokine staining", "value": "> 2", "unit": "fold"}
    ]}
  ]
}
